In patent US10870691B2, “Antibodies and fragments thereof that bind hepatitis B virus protein X” (priority 2018, dated 2020):
Read-outs that look alike come from different tables or passages of the source. Ends that are not written are not given here.

What was measured:
Smc6 = experiment: Confocal microscopy of Smc6 in HBV-infected PHH after treatment; assay type: cell-based, human; details: confocal microscopy (FIGS. 8B, 10B)
Protocol: (§1) siRNA transfections were performed using Lipofectamine RNAiMax.

HBx [1] = details: HBV-infected PHH, confocal microscopy (FIGS. 8B, 9B, 10B)
HBV = experiment: Extracellular HBV DNA quantification (qPCR) in HBV-infected PHH; assay type: cell-based, HBV genotype D in primary human hepatocytes; details: siRNA 25 nM transfected or ETV treatment from day 6 post-infection (FIGS. 8A, 9A, 10A)
Protocol: PHH were infected with HBV or HBVΔX (1000 genomic equivalents/cell) or transduced with lentiviruses as described previously (Niu, et al., PLoS One (2017) 12:e0169648).
as §1
Extracellular HBeAg and HBV DNA were measured as previously described (Niu, et al., PLoS One (2017) 12:e0169648, 29). HBeAg levels were measured by enzyme-linked immunosorbent assay or electrochemiluminescence assay (Meso Scale Discovery, Rockville, Md.). Extracellular HBV DNA was purified from cell-culture medium using a DNeasy 96 Blood & Tissue Kit (Qiagen) and quantified by qPCR on a QuantStudio 7 Flex Real-Time PCR System (ThermoFisher Scientific) using primers and a probe designed to the HBx region of the HBV genome; forward primer: 5′-CCGTCTGTGCCTTCTCATCTG-3′; reverse primer: 5′-AGT CCA AGA GTY CTC TTA TGY AAG ACC TT-3′; probe: 5′/56-FAM/CCG TGT GCA/ZEN/CTT CGC TTC ACC TCT GC/3IABkFQ/3′. HBV DNA levels were normalized to β-actin.

[2] = Mouse immunization with peptide-BSA conjugate; assay type: in vivo; details: 10 μg peptide-BSA conjugate plus 1 μg adjuvant, biweekly injections, CD-1 mice
Protocol: (§3) Two of these HBx peptides were individually conjugated to BSA and three NZB/W, three CD-1, and three BALB/c mice were immunized with 10 μg peptide-BSA conjugate plus 1 μg adjuvant (ALD and MDP in a 1:1 ratio). Biweekly injections were performed using a “rapid” immunization protocol developed by Antibody Solutions. […] The top 50 candidates were further evaluated by confocal imaging of HBV-infected PHH.

[3] = tested on: recombinant HBx-DDB1 fusion protein; experiment: HBx ELISA, binding to recombinant HBx-DDB1 fusion protein; parameters: species or system HBV; details: 100 ng/mL antibody, varying concentrations of fusion protein
Protocol: Mouse monoclonal anti-HBx antibodies were developed by Antibody Solutions (Sunnyvale, Calif.). Antibody candidates were screened by enzyme-linked immunosorbent assay (ELISA) using recombinant HBx-DDB1 fusion protein and then by confocal microscopy on HBV infected PHH.
Antibody candidates were screened by ELISA. […] Signal strength was measured as absorbance at 450 nm.

HBx27-50 peptide = HBx27-50 peptide (Hepatitis B virus genotype D subtype ayw, UniProt P03165); details: 100 ng/mL antibody, varying concentrations of HBx peptide
Protocol: (§2) Antibody candidates were screened by ELISA. Briefly, sulfhydryl plates were coated with 36 ng/mL recombinant HBx-DDB1 fusion protein, blocked and then incubated with 50 μL of undiluted hybridoma supernatant. Signal was detected colorimetrically with a goat anti-mouse-HRP antibody (Jackson Immuno Research, West Grove, Pa.) and incubation with TMB substrate solution (MossBio, Pasadena, Mass.). Signal strength was measured as absorbance at 450 nm. ELISA profiling of mAbs was performed using 100 ng/mL antibody with varying concentrations of recombinant HBx-DDB1 fusion protein or HBx peptide.

HBx69-87 peptide = HBx69-87 peptide (Hepatitis B virus genotype D subtype ayw, UniProt P03165); details: 100 ng/mL antibody, varying concentrations of HBx peptide
Protocol: as §2

HBx [4] = biological target: HBx (Hepatitis B virus genotype D subtype ayw, UniProt P03165); details: top 50 candidates, HBV-infected PHH
Protocol: as §3

HBx [5] = details: for detection of HBx by Western blot in PHH transduced with Myc-HBx lentivirus: Myc-tagged HBx genotype D, lysates day 3 post-transduction; for HBx genotype recognized by Western blot: PHH transduced with lentiviruses expressing HBx genotype A-E; for detection of HBx by Western blot in HBV-infected PHH: lysates day 4 post-infection
Protocol: For Western blotting experiments, PHH were transduced with Myc-HBx-expressing lentivirus or were infected with wild-type HBV, HBx-negative HBV (HBVΔX), or were mock-infected.
Western blotting was performed as previously described (Decorsière, et al., Nature (2016) 531:386-389). Briefly, PHH were transduced with a lentivirus expressing 3xMyc-HBx (HBV genotype A, B, C, D or E) or infected with wild-type HBV, HBVΔX, or mock-infected. On the indicated day post-transduction or post-infection, lysates were collected by adding 0.25 mL 1× cell lysis buffer (Cell Signaling) combined with protease inhibitor cocktail (ThermoFisher Scientific) and scraping to remove the cells from the plates. Membranes were probed with 1:250 diluted mouse monoclonal anti-Smc6 (Abgent), 1:1000 diluted mouse monoclonal c-Myc (LifeSpan Biosciences), 1:250 diluted mouse monoclonal anti-HBx mAb (15 μg/mL final concentration), and 1:2000 diluted rabbit monoclonal anti-GAPDH (Cell Signaling). IRDye 680RD goat anti-rabbit or IRDye 800CW goat anti-mouse IgG (LI-COR, Lincoln, Nebr.) at a 1:5000 dilution were used as secondary antibodies. Blots were visualized using an Odyssey Infrared Imaging System (LI-COR).

HBx (Hepatitis B virus genotype D subtype ayw, UniProt P03165), sequence (P03165 whole entry): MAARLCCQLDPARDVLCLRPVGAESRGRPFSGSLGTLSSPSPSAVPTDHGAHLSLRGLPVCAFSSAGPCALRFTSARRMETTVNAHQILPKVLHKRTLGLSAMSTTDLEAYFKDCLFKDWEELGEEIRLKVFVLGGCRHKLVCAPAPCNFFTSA

C=C1[C@H](CO)[C@@H](O)C[C@@H]1n1cnc2c(=O)[nH]c(N)nc21 [ETV, entecavir]
change in percentage of Smc6-positive cells (Smc6): Neither ETV nor siCtrl significantly reduced the percentage of HBx-positive cells or increased the percentage of Smc6-positive cells | change in percentage of HBx-positive cells (HBx [1]): Neither ETV nor siCtrl significantly reduced | extracellular HBV DNA levels (HBV): significantly reduced

HBx27-50: HBx AD38 (genotype D) residue 27-50 peptide, conjugated to BSA for immunization (GRPFSGSLGTLSSPSPSAVPTDHG; also: conjugated to BSA)
immunogenicity of peptide-BSA conjugate [2]: immunogenic

B1: HBx M19: mouse monoclonal antibody against HBx; heavy chain SEQ ID NO: 27, light chain SEQ ID NO: 30 (Table 1) (antibody)
heavy: EVQLQQSGPELVKPGASVKISCQASGYTFTDYYMNWVKQSHGKRLEWIGDINPNNGGTAYNQKFKGKATLTVDRSSSTAYMEVRSLTSEDSAVYFCALLAYWGQGTLVTVSAAKTTPPSVYPLAPGSAAQTNSMVTLGCLVKGYFPEPVTVTWNSGSLSSGVHTFPAVLQSDLYTLSSSVTVPSSTWPSQTVTCNVAHPASSTKVDKKIVPRDCGCKPCICTVPEVSSVFIFPPKPKDVLTITLTPKVTCVVVDISKDDPEVQFSWFVDDVEVHTAQTKPREEQINSTFRSVSELPIMHQDWLNGKEFKCRVNSAAFPAPIEKTISKTKGRPKAPQVYTIPPPKEQMAKDKVSLTCMITNFFPEDITVEWQWNGQPAENYKNTQPIMDTDGSYFVYSKLNVQKSNWEAGNTFTCSVLHEGLHNHHTEKSLSHSPGK
light: DVVMTQTPLSLPVSLGDQASISCRSSQSLVYSDGNTHLHWYLQKTGQSPKLLIYKASNRFSGVPDRFSGSGSGTDFTLKISRVEAEDLGVYFCSQSTHVPLTFGAGTKLELKRADAAPTVSIFPPSSEQLTSGGASVVCFLNNFYPKDINVKWKIDGSERQNGVLNSWTDQDSKDSTYSMSSTLTLTKDEYERHNSYTCEATHKTSTSPIVKSFNRGEC
binding to recombinant HBx-DDB1 fusion protein by ELISA [3]: bound | binding to HBx27-50 peptide by ELISA (HBx27-50 peptide): potently bound | binding to HBx69-87 control peptide by ELISA (HBx69-87 peptide): did not bind | selectivity and sensitivity of hybridoma clones by confocal imaging (HBx [4]): most selective and sensitive | detection of HBx by Western blot in PHH transduced with Myc-HBx lentivirus (HBx [5]; listed as HBx mAb): detected a 17 kDa protein | detection of HBx by Western blot in PHH transduced with Myc-HBx lentivirus (HBx [5]; listed as αHBx mAb): detected | HBx genotype recognized by Western blot (HBx [5]; listed as HBx mAb): primarily recognizes genotype D HBx | HBx genotype recognized by Western blot (HBx [5]; listed as anti-HBx mAb): selective for genotype D HBx | sensitivity in Western blot analysis versus the other mAb (HBx [5]; lentivirus-expressed HBx in PHH): superior sensitivity | detection of HBx by Western blot in HBV-infected PHH (HBx [5]; listed as HBx mAb): detects a 17 kDa band | detection of HBx by Western blot in HBV-infected PHH (HBx [5]; listed as anti-HBx mAb): able to detect physiologically relevant levels of HBx protein | detection of HBx by Western blot in HBV-infected PHH (HBx [5]; listed as αHBx mAb): detected
